T1: Fc fused human IL-18Rα (human, UniProt Q13478 19-329, limits assumed)
T1 construct: also called IL-18Rα monomer; IL-18 receptor alpha; not shown: Fc part
T1 sequence (looked up): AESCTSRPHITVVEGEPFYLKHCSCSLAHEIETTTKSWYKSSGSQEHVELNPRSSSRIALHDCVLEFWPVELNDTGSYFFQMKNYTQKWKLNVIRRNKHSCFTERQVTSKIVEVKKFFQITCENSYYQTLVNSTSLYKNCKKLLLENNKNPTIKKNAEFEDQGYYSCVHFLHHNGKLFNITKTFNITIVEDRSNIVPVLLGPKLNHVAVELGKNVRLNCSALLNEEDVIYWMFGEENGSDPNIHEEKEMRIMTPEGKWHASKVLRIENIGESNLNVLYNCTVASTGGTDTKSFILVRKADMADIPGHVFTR

T2: IL-18Rα/β heterodimer (Fc fused human IL-18Rα mixed and pre-incubated with Fc fused human IL-18Rβ) (human, UniProt Q13478 19-329; O95256 20-356, limits assumed)
T2 construct: 6 µg/mL of each receptor mixed and pre-incubated 30 min before capture on anti-human IgG; also called alpha/beta heterodimer IL-18 receptor; not shown: Fc part
T2 sequence (looked up) 1: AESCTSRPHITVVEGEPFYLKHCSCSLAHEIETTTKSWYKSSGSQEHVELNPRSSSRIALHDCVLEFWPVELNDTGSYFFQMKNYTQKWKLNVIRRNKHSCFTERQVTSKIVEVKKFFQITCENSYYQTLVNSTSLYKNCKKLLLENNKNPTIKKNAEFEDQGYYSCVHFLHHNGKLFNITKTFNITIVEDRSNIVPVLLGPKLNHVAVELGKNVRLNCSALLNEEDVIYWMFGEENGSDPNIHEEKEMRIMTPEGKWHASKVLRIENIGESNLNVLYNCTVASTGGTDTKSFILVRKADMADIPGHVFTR
T2 sequence (looked up) 2: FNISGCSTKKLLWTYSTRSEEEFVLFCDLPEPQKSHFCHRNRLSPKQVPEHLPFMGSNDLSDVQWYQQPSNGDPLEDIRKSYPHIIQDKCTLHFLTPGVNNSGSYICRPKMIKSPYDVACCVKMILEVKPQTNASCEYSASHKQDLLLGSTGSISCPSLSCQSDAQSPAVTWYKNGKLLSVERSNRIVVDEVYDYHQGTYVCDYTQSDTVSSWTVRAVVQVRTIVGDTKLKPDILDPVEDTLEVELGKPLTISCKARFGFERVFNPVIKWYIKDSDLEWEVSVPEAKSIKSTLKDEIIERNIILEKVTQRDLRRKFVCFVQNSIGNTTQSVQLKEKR

T3: Fc fused human IL-18BP isoform a (IL-18BPa) (human, UniProt O95998 31-194)
T3 construct: also called IL-18BP monomer; not shown: Fc part
T3 sequence (looked up): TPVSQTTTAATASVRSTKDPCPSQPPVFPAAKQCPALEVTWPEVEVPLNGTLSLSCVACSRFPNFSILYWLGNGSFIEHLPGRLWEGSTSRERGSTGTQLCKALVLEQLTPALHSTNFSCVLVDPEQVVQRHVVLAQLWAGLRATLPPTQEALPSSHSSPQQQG

B1: Modified IL-18 polypeptide of SEQ ID NO: 3 (Y01G, F02A, E06K, M51G, K53A, D54A, S55A, T63A) (ligand)
chain: GAGKLKSKLSVIRNLNDQVLFIDQGNRPLFEDMTDSDCRDNAPRTIFIISGYAAAQPRGMAVAISVKCEKISTLSCENKIISFKEMNPPDNIKDTKSDIIFFQRSVPGHDNKMQFESSSYEGYFLACEKERDLFKLILKKEDELGDRSIMFTVQNED
B2: Modified IL-18 polypeptide of SEQ ID NO: 18 (E06K, K53A, T63A) (ligand)
chain: YFGKLKSKLSVIRNLNDQVLFIDQGNRPLFEDMTDSDCRDNAPRTIFIISMYADSQPRGMAVAISVKCEKISTLSCENKIISFKEMNPPDNIKDTKSDIIFFQRSVPGHDNKMQFESSSYEGYFLACEKERDLFKLILKKEDELGDRSIMFTVQNED
B3: Modified IL-18 polypeptide of SEQ ID NO: 13 (E06K, K53A, S55A, D54A) (ligand)
chain: YFGKLKSKLSVIRNLNDQVLFIDQGNRPLFEDMTDSDCRDNAPRTIFIISMYAAAQPRGMAVTISVKCEKISTLSCENKIISFKEMNPPDNIKDTKSDIIFFQRSVPGHDNKMQFESSSYEGYFLACEKERDLFKLILKKEDELGDRSIMFTVQNED
B4: Modified IL-18 polypeptide of SEQ ID NO: 12 (E06K, K53A, S55A, F02A) (ligand)
chain: YAGKLKSKLSVIRNLNDQVLFIDQGNRPLFEDMTDSDCRDNAPRTIFIISMYADAQPRGMAVTISVKCEKISTLSCENKIISFKEMNPPDNIKDTKSDIIFFQRSVPGHDNKMQFESSSYEGYFLACEKERDLFKLILKKEDELGDRSIMFTVQNED
B5: Modified IL-18 polypeptide of SEQ ID NO: 10 (E06K, K53A, S55A, T63A) (ligand)
chain: YFGKLKSKLSVIRNLNDQVLFIDQGNRPLFEDMTDSDCRDNAPRTIFIISMYADAQPRGMAVAISVKCEKISTLSCENKIISFKEMNPPDNIKDTKSDIIFFQRSVPGHDNKMQFESSSYEGYFLACEKERDLFKLILKKEDELGDRSIMFTVQNED
B6: Modified IL-18 polypeptide of SEQ ID NO: 70 (E6K, K53A, C38S, C76S, C127S) (ligand)
chain: YFGKLKSKLSVIRNLNDQVLFIDQGNRPLFEDMTDSDSRDNAPRTIFIISMYADSQPRGMAVTISVKCEKISTLSSENKIISFKEMNPPDNIKDTKSDIIFFQRSVPGHDNKMQFESSSYEGYFLASEKERDLFKLILKKEDELGDRSIMFTVQNED
B7: Modified IL-18 polypeptide of SEQ ID NO: 16 (C38S, C68S, C76S, C127S, K70C) (ligand)
chain: YFGKLESKLSVIRNLNDQVLFIDQGNRPLFEDMTDSDSRDNAPRTIFIISMYKDSQPRGMAVTISVKSECISTLSSENKIISFKEMNPPDNIKDTKSDIIFFQRSVPGHDNKMQFESSSYEGYFLASEKERDLFKLILKKEDELGDRSIMFTVQNED
B8: Modified IL-18 polypeptide of SEQ ID NO: 14 (E06K, K53A, S55A, M51G) (ligand)
chain: YFGKLKSKLSVIRNLNDQVLFIDQGNRPLFEDMTDSDCRDNAPRTIFIISGYADAQPRGMAVTISVKCEKISTLSCENKIISFKEMNPPDNIKDTKSDIIFFQRSVPGHDNKMQFESSSYEGYFLACEKERDLFKLILKKEDELGDRSIMFTVQNED
B9: Modified IL-18 polypeptide of SEQ ID NO: 15 (C38S, C68S, C76S, C127S) (ligand)
chain: YFGKLESKLSVIRNLNDQVLFIDQGNRPLFEDMTDSDSRDNAPRTIFIISMYKDSQPRGMAVTISVKSEKISTLSSENKIISFKEMNPPDNIKDTKSDIIFFQRSVPGHDNKMQFESSSYEGYFLASEKERDLFKLILKKEDELGDRSIMFTVQNED
B10: Modified IL-18 polypeptide of SEQ ID NO: 22 (E06K, K53A, C38S, C68S, C76S, C127S, K70C) (ligand)
chain: YFGKLKSKLSVIRNLNDQVLFIDQGNRPLFEDMTDSDSRDNAPRTIFIISMYADSQPRGMAVTISVKSECISTLSSENKIISFKEMNPPDNIKDTKSDIIFFQRSVPGHDNKMQFESSSYEGYFLASEKERDLFKLILKKEDELGDRSIMFTVQNED
B11: Modified IL-18 polypeptide of SEQ ID NO: 17 (E06K, K53A, S55A, C38S, C68S, C76S, C127S, K70C) (ligand)
chain: YFGKLKSKLSVIRNLNDQVLFIDQGNRPLFEDMTDSDSRDNAPRTIFIISMYADAQPRGMAVTISVKSECISTLSSENKIISFKEMNPPDNIKDTKSDIIFFQRSVPGHDNKMQFESSSYEGYFLASEKERDLFKLILKKEDELGDRSIMFTVQNED
B12: Modified IL-18 polypeptide of SEQ ID NO: 23 (K53A, T63A, C38S, C68S, C76S, C127S, K70C) (ligand)
chain: YFGKLESKLSVIRNLNDQVLFIDQGNRPLFEDMTDSDSRDNAPRTIFIISMYADSQPRGMAVAISVKSECISTLSSENKIISFKEMNPPDNIKDTKSDIIFFQRSVPGHDNKMQFESSSYEGYFLASEKERDLFKLILKKEDELGDRSIMFTVQNED

Legend:
[1] = target: T1, Fc fused human IL-18Rα; experiment: SPR, Fc-IL-18Rα captured, 1:1 model
Protocol: (§1) The interaction of the wild type and of modified IL-18 polypeptides with human IL-18 receptor subunits were measured with Surface Plasmon Resonance (SPR) technology. Anti-human IgG antibodies were bound by amine coupling onto a CM5 chip to capture 6 μg/mL of Fc fused human IL-18Rα, 6 μg/mL of Fc fused human IL-18Rβ, or 2 μg/mL of Fc fused human IL-18BP isoform a (IL-18BPa) for 30 min before capture. In other settings, 6 μg/mL of alpha and beta IL-18 receptors were mixed and pre-incubated for 30 min before capture of the alpha/beta heterodimer IL-18 receptor.
(§2) The kinetic binding of the IL-18 analytes were measured with a Biacore 8K instrument in two-fold serial dilutions starting at 1 μM down to 0.98 nM. Regeneration of the surface back to amine coupled anti IgG antibody was done after every concentration of analyte. To measure the protein association to the receptors, the samples were injected with a flow rate of 50 μL/min for 60 s, followed by 300 s buffer only to detect the dissociation. The used running buffer was 1×PBS with 0.05% Tween20. The relative response units (RU, Y-axis) are plotted against time (s, X-axis) and analyzed in a kinetic 1:1 binding model for the monomer receptor binding and for the binding to the IL-18BP. A kinetic heterogenous ligand fit model was applied for the alpha/beta heterodimer binding.
Modified IL-18 polypeptides having sequence modifications E06K, K53A, S55A, and T63A maintained binding affinity to IL-18Rα.

[2] = target: T2, IL-18Rα/β heterodimer (Fc fused human …); experiment: SPR, Fc-IL-18Rα/Fc-IL-18Rβ mix captured, heterogeneous ligand model
Protocol: as §1, §2
Modified IL-18 polypeptides bearing sequence modifications E06K, K53A, S55A, and T63A maintained binding affinity to IL-18Rα/β heterodimer.

[3] = target: IL-18R on HEK-Blue IL18R reporter cells (InvivoGen, #hkb-hmil18); experiment: cell-based or functional assay
[4] = target: T3, Fc fused human IL-18BP isoform a …; experiment: SPR, Fc-IL-18BPa captured, 1:1 model
Protocol: as §1, §2
Modified IL-18 polypeptides bearing sequence modifications K53A, S55A, E06K, C38S, C68S, C76S, C127S, and/or K70C maintained binding affinity to IL-18BP.

Binder | Kd [1] | Kd [2] | EC50 (pM), HEK-Blue IL18R reporter assay [3] | Potency loss Mutant/NWT, HEK-Blue IL18R reporter assay [3] | koff [1] | kon [1] | Kd [4] | koff [4] | kon [4] | koff [2] | kon [2]
B1 | > 1000 nM | > 1000 nM | – | – | – | – | – | – | – | – | –
B2 | 38 nM | 7.01 nM | 1.77 pM | 0.53 fold | 0.00573 s⁻¹ | 151000 M⁻¹ s⁻¹ | 10.4 nM | 0.00291 s⁻¹ | 279000 M⁻¹ s⁻¹ | 0.000955 s⁻¹ | 136000 M⁻¹ s⁻¹
B3 | > 1000 nM | > 1000 nM | – | – | – | – | > 1000 nM | – | – | – | –
B4 | > 1000 nM | > 1000 nM | – | – | – | – | > 1000 nM | – | – | – | –
B5 | 147 nM | 132 nM | 0.79 pM | 0.24 fold | 0.0496 s⁻¹ | 337000 M⁻¹ s⁻¹ | 49 nM | 0.0181 s⁻¹ | 370000 M⁻¹ s⁻¹ | 0.054 s⁻¹ | 409000 M⁻¹ s⁻¹
B6 | 379 nM | 13.2 nM | 3.73 pM | 1.11 fold | 0.0369 s⁻¹ | 92600 M⁻¹ s⁻¹ | 29.1 nM | 0.0037 s⁻¹ | 128000 M⁻¹ s⁻¹ | 0.0006 s⁻¹ | 43600 M⁻¹ s⁻¹
B7 | 304 nM | 200 nM | – | – | 0.0158 s⁻¹ | 51900 M⁻¹ s⁻¹ | 0.374 nM | 0.000265 s⁻¹ | 708000 M⁻¹ s⁻¹ | 0.0317 s⁻¹ | 159000 M⁻¹ s⁻¹
B8 | > 1000 nM | – | – | – | – | – | > 1000 nM | – | – | – | –
B9 | 231 nM | 315 nM | – | – | 0.0179 s⁻¹ | 77500 M⁻¹ s⁻¹ | 0.199 nM | 0.000253 s⁻¹ | 1.27e+06 M⁻¹ s⁻¹ | 0.022 s⁻¹ | 69800 M⁻¹ s⁻¹
B10 | 2210 nM | 48.2 nM | 9.12 pM | 2.74 fold | 0.0199 s⁻¹ | 8970 M⁻¹ s⁻¹ | 23.2 nM | 0.00235 s⁻¹ | 101000 M⁻¹ s⁻¹ | 0.000761 s⁻¹ | 15800 M⁻¹ s⁻¹
B11 | > 1000 nM | > 1000 nM | – | – | – | – | – | – | – | – | –
B12 | > 1000 nM | > 1000 nM | – | – | – | – | 52.8 nM | 0.00118 s⁻¹ | 22400 M⁻¹ s⁻¹ | – | –

— patent US20220056091A1 (BRIGHT PEAK THERAPEUTICS, published 2022)
